The record followed here is paper PMC5021983.

What all share (assay): FRET titration
One data set has as its system Gal4. Particulars: EMSA: 5 nM nucleosome, 130 mM NaCl, 10% glycerol, 10 mM Tris-HCl pH 8, 0.005% Tween 20, 0.5x TE, room temperature 3 min, 5% native PAGE in 0.3x TTE, FRET: 5 nM ….
A further data set relates to MeCP2 (human). Particulars: EMSA: 5 nM nucleosome, 130 mM NaCl, 10% glycerol, 10 mM Tris-HCl pH 8, 0.005% Tween 20, 0.5x TE, room temperature 3 min, 5% native PAGE in 0.3x TTE; FRET: 5 nM …. On the technique in general: Mobility shift assays separate free from complexed probe on a gel.
In the next data set the test system is histone H1 (Drosophila). Particulars: EMSA: 5 nM nucleosome, 130 mM NaCl, 10% glycerol, 10 mM Tris-HCl pH 8, 0.005% Tween 20, 0.5x TE, room temperature 3 min, 5% native PAGE in 0.3x TTE; FRET: 5 nM ….

Turning to “601 mononucleosome with Gal4 site, 247 bp (FRET construct)”, the K half in the data set on Gal4 (no CAP, 5 nM nucleosome, Hill coefficient -3.76 ± 2.16) was determined as 3.06 nM; in the data set with Gal4 (nucleosome prebound with 25 nM MeCP2, Hill coefficient -1.47 ± 0.22), 12.2 nM; with MeCP2 (human), 20.7 nM; with histone H1 (Drosophila), 12.1 nM.
